In paper PMC10214663:

Target: FGF4-Fc (human) (UniProt P08620)
Assay: BLI; Octet RED K2; FGF4-Fc (25 µg/mL) on Protein-A sensors, galectins at 0.2 µM to 6 µM; heterogeneous ligand (2:1) model; steady-state analysis for galectin-1

FGF4-Fc (human), sequence (P08620 31-206): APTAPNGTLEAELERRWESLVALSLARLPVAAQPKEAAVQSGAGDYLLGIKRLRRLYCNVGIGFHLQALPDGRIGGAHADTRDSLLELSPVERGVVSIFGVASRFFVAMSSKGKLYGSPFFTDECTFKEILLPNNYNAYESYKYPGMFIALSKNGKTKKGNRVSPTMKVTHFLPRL

**Q.** Which KD1 does the source give for galectin-8 (natural protein) here?
**A.** Its KD1 is 724 nM.

**Q.** And the KD2?
**A.** The KD2 was 140 nM.

**Q.** And the KOff1?
**A.** The KOff1 was 0.0755 s⁻¹.

**Q.** What about the KOff2 of the same substance?
**A.** The KOff2 was 0.000115 s⁻¹.

**Q.** What about the Kon1 of the same substance?
**A.** The Kon1 was 104000 M⁻¹ s⁻¹.

**Q.** What about the Kon2 of the same substance?
**A.** Its Kon2 is 823 M⁻¹ s⁻¹.
